Source: US10654918B2, “Inflammatory disease diagnosis and methods of treatment using down-regulators of lipopolysaccharide-responsive beige-like anchor” (University of South Florida, priority 2013, dated 2020)

Columns and labels:
LRBA = assay: Knockdown of LRBA in Raji B cell lines stably transfected with LRBA shRNA; assay type: cell-based, human; conditions: three Raji B cell lines stably transfected
Description: Three Raji B cell lines stablely transfected with LRBA shRNA that knockdown LRBA over 90% were generated, along with […] mouse cell lines stably transfected with a LRBA DNM.
LRBA was tested for its effect on cell growth. For the “loss of function” strategy, EBV immotalized LRBA-deficient B cell lines were generated from LRBA deficient patients, and dominant negative LRBA mutants (DNM) and knockout mouse models. The LRBA sequence targeted by the shRNA used was SEQ ID No. 15;

NF-κB = NF-κB luciferase reporter and phospho-NFκB flow cytometry in Raji cells with LRBA knockdown; assay type: cell-based, human
Text: FIG. 45A-D. Knockdown of LRBA deregulates NFκB. (A) Knockdown of LRBA increases NFκB luciferase activity. An NFκB luciferase reporter was used to measure the NFκB transcription activity. The data are shown as scatter with bar graph of mean with standard error of mean (SEM). (B) Knockdown of LRBA increases phospho-NFκB. The Phosflow kit including Cytofix Fixation Buffer, Phosflow Perm Buffer III and Stain Buffer (BD) and phospho-antibodies, NFκB p65 (pS529) PE-Cy7 were used for the intracellular staining following the company's instruction. For each samples, 50,000 cells were recorded for the FACS assay. (C) A549 cells were stably transfected with LRBA shRNA knockdown plasmid and several clones were picked up. […]
FIGS. 46(A) and (B). […] NFκB luciferase activity was measured at each time point for both cell lines as in A. RLU: Relative Light Units. […]
NF-κB is the central regulator of the immune system and plays a pivotal role in inflammation and immune responses. […] Raji cells were stimulated with LPS for different times from zero to several hours, and the NF-κB activity was measured by NF-κB luciferase reporter. […]
Ready-To-Glow™ NF-κB Secreted Luciferase Reporter System (Clontech) and Firefly Luciferase Assay Kit (Biotium, Calif., USA) were used following the manufacture's instruction.

B1: LRBA shRNA: shRNA plasmid against LRBA; targeted LRBA sequence SEQ ID No. 15 GGGATATTGTAGAAACTGTCTTT (nucleic acid)
sense: GGGATATTGTAGAAACTGTCTTTTTCAAGAGAAAAGACAGTTTCTACAATATCCCTTTTTT
antisense: CCCTATAACATCTTTGACAGAAAAAGTTCTCTTTTCTGTCAAAGATGTTATAGGGAAAAAA
knockdown of LRBA (LRBA): over 90%
phospho-NFκB (pS529), flow cytometry (NF-κB; Raji cells): increases
average levels of the NF-κB activity (luciferase reporter) (NF-κB; Raji cells stimulated with LPS, zero to several hours): higher
